The text below walks through data of the nanobody polyreactivity screen of Harvey et al. (2022).

The series in a line: yeast display, Sf9 membrane polyspecificity reagent, FACS + sequencing; frameworks hold sequencing errors. A digest of the protocol: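 A synthetic nanobody library was expressed on Saccharomyces cerevisiae BJ5465 by galactose induction for 36–48 hours. The library was stained for 1 hour at 4 °C with 10% biotinylated, detergent-solubilized Sf9 membrane reagent and enriched with streptavidin microbeads before FACS. Low and high (top ~1%) gates were set on anti-HA fluorescence for expression and streptavidin fluorescence for reagent binding, and each polyreactivity label reflects the gate of origin.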
With “HVQLVESGGGLVQAGGSLRLSCAASGLTFSRYTMGWYRQAPGKERELVAAISRSGASTYYADSVKGRFTISRDNAKNTVYLQMNSLKPEDTAVYYCAKTSTSYGSLRKVTPYPLDYWGQGTQVTVSS”, the “polyreactivity (PSR sort gate)” value was “high polyreactivity”.

For the sequence “QVQLVESGGGLVQAGGSLRLSCAASGSTFSWYTMGWYRQAPGKERELVAAISWSGGRTYYADSVKGRFTISRDNAKNTVYLQMNSLKPEDTAVYYCAAYDYWYSLGVYQFYYWGQGTQVTVSS”, the “polyreactivity (PSR sort gate)” value is recorded as “low polyreactivity”.

For “QVQLVESGGGLVQAGGSLRLSCAASGRTFYSNAMGWYRQAPGKERELVAAITSTDDSTYYADSVKGRFTISRDNAKNTVYLPMNSLKPEDTAVYYCAAESGYPVYTYVSSGDYWGQGTQVTVSS”, the “polyreactivity (PSR sort gate)” value was “low polyreactivity”.

For the sequence “QVQLVESGGGLVQAGGSLRLSCAASGRTFPGYAMGWYRQAPGKERELVATITFSDGSTYYADSVKGRFTISRDNAKNSVYLQMNSLKPEDTAVYYCNARRSYFLRYGVNYWGQGTQVTVSS”, the “polyreactivity (PSR sort gate)” value is “low polyreactivity”.

For the sequence “QVQLVESGGGLVQAGGSLRLSCAASGRTFGRNAMGWYRQAPGKERELVAAINSGGSTKYADSVKGRFTISRDNAKNTVYLQMNSLKPEDTSVYYCARRGGFSYYYWGQGTQVTVSS”, the “polyreactivity (PSR sort gate)” value is recorded as “high polyreactivity”.

For “QVQLVESGGGLVQAGGSLRLSCAASGSIFFRYTMGWSRQAPGTERELVAAITGSGGSTYYADSVKGRFTISRDNAKNTVYLQMNSLKTEDTAVYYCARPGWGRYEYWGQGTQVTVSS”, the “polyreactivity (PSR sort gate)” value was “high polyreactivity”.

Take “QVQLVESGGGLVQAGGSLRLSCAASGRTFYSNVMGWYRQAPGKERELVAAISKSGGRTYYADSVKGRFTISRDNAKNTVYLQMNSLKPEDTAVYYCATDHGRYHGRYDYWGQGTQVTVSS”: the “polyreactivity (PSR sort gate)” value is “high polyreactivity”.

As for “QVQLVESGGGLVQAGGSLRLSCAASGGIFVFYGLGWYRQAPGKERELVAAINGNGDDTYYADSVKGRFTISRDNAKNTVYLQMNSLKPEDTAVYYCAAESRGDGDGYWGQGTQVTVSS”, the “polyreactivity (PSR sort gate)” value was “low polyreactivity”.

Take “QVQLVESGGGLVQAGGSLRLSCAASGSTLSKYGMGRYRQAPGKERELVAAISYSSGSTYYADSVKGRFTISRDNAKNSVYLQMNSLKPEDTAVYYGAADRFRRLHYWTYDYWGQGTQVTVSS”: the “polyreactivity (PSR sort gate)” value is reported as “high polyreactivity”.

“QVQLVESGGGLVQAGGSLRLSCAASGITFTVNAMGWYRQAPGKERELVAAISNDGSTYYADSVKGRFTISRDNAKNTVYLQMNSLKPEDTAVYYCAADTWDDFGPYGYDYWGQGTQVTVSS”: the “polyreactivity (PSR sort gate)” value was “low polyreactivity”.

In the case of “QVQLVESGAGLVLPGGSLRLSCAASGNTTSTNAMGWYRQAPGKERVAALTWSTGSTYYEDSVKVRFTISRDNAKNTVYLQMNSLKQDETAVYYCAKQTYVSEYGLATAAWGFDYWGQGTQVTVSS”, the “polyreactivity (PSR sort gate)” value is reported as “low polyreactivity”.

With “QVQLVESGGGLVQAGGSLRLSCAASGFTFPDYAMGWYRQAPAKERELVAAISSDGSTYYADSVNGRFTISRDNAHNTVYLQMNSLKPEDTAVYYCAAYVVWLYGYDYWGQGTQVTVSS”, the “polyreactivity (PSR sort gate)” value is listed as “low polyreactivity”.

With “QVRLVESGGGLVQAGGSLRLTCAASGSTFTTYALGWYRQAPGKERELVAAISSGGDTKYADSVKGRFTISRDNAKNTIYLQMNSLIPEDTAVYYCAKRRYYRYYYWGQGTQVTVSS”, the “polyreactivity (PSR sort gate)” value is given as “high polyreactivity”.

Consider “QVQLVESGGGLVQAGGSLRLSCAASGFIFGYYAMGWYRQAPGKERELVAAISRGGITYYADSVKGRFTISRDNAKNTVYLQMNSLKPEDTAVYYCAAPNRYSVPMYYWGQGTQVTVSS”, for which the “polyreactivity (PSR sort gate)” value is recorded as “low polyreactivity”.

As for “QVQLVESGGGLVQAGGSLSLSCAASGRTFNSNAMGWYRQAPGKERELVAAISNRGTRTYYADSVKGRFTISRDNAKNTVYLQMNSLKPEDTAVYYCAASERDQRFKHYYWGQGTQVTVSS”, the “polyreactivity (PSR sort gate)” value was “high polyreactivity”.

As for “QVQLVESGGGLVQAGGSLRLSCAASGFTFRANAMGWYRQAPGKERELVAAISQSGGRTYYADSVKGRFTISRDNAKNTVYLQMNSLKPEDTAVYYCAAPYSAKELYYRMDYWGQGTQVTVSS”, the “polyreactivity (PSR sort gate)” value is given as “high polyreactivity”.

As for “QVQLVESGGGLVQAGGSLRLSCAASGRIFRYNGMGWYRQAPGKERELVAVITPRSGTTSYADSVKGRFTISRDNAKNTVYLQMNSLKPEDTAVYYCAADSDWYPSPYDYWGQGTQVTVSS”, the “polyreactivity (PSR sort gate)” value was “high polyreactivity”.

Regarding “QVQLVESGGGLVQAGGSLRLSCAASGITLYYYTMGWYRQAPGKERELVAAISGSGGSTYYADSVKGRFTISRDNAKNTVYLQMNSLKPEDTAVYYCNTARSLKNHFYKYDYWGQGTQVTVSS”, the “polyreactivity (PSR sort gate)” value is recorded as “high polyreactivity”.

With “QVQLVESGGGLVQAGGSLRLSCAASGSIFPSYVMGWYRQAPGKERELVAGITSSGGSTYYADSVKGRFTISRDNAKNTVYLQMNSLKPEDTAVYYCAARWKPASYGYGYWGQGTQVTVSS”, the “polyreactivity (PSR sort gate)” value is given as “low polyreactivity”.

Regarding “QVQLVESGGGLVHAGGILRLSCAASGFIFWSYAKGWYRQAPGKERELFAAIDLSGGSTYYADSVKGRFTISRDNAKNTVYLQLNSLKPEDTAVYYCNADGDTYAFTNSDSGFDYWGQGTQVTVSS”, the “polyreactivity (PSR sort gate)” value is “low polyreactivity”.

Consider “QVQLVESGGGLVQAGGSLRLSCAASGFIFFKYVMGWYRPAPGKERELVAAISTTGGRTYYADSVKGRFTISRDNAKNTVYLQMNSLKPEDTAVYYCAADYPVWNHGFDYWGQGTQVTVSS”, for which the “polyreactivity (PSR sort gate)” value is “high polyreactivity”.

Consider “QVQLVESGGGLVQAGGSLRLSCAASGYIFFGNAMGWYRQAPGKERELVAAIRWRGTSTYYADSVKGRFTISRDNAKNTVYLQMNSLKPEDTAVYYCARLRTVGGYSKYDYWGQGSQVTVSS”, for which the “polyreactivity (PSR sort gate)” value is listed as “low polyreactivity”.

Turning to “QVHLVESGGGLVQAGGSLRLSCAASGSIFKKNTLGWYRQAPGKERELVAVISSSGTRTYYADSVKGRFTISRDNAKNTVYLQMNSLKPEDTAVYYCARRAGGERDDYWGQGTQVTVSS”, the “polyreactivity (PSR sort gate)” value was “high polyreactivity”.

Take “QVQLVESGGGLVQAGGSLRLSCAASGSIFYRYTMGWYRQAPGKERELVAGITFGAGTYYADSVKGRFTISRDNAKNTVYLQMNSLKPEDTAVYYCNAKHLPRHRDYWGQGTQVTVSS”: the “polyreactivity (PSR sort gate)” value is listed as “low polyreactivity”.

With “QVQLVESGGGFVQAGASLRLSCAASGRTFYRYAMGWYRQAPGKERQLVAAINWRGGSTSYADSVKGRFTISRDNAKNTVYLQMNSLIPEDTAVYYCNAKFICWYEKGGCNVSKYEYWGQGTQVTVSS”, the “polyreactivity (PSR sort gate)” value is recorded as “low polyreactivity”.

“QVQLGESGGALVQAGGSLRLSCAASGSIYWYKDMGWYTEATGKEMELVAAINSGGDTNYADSVKGRFTISRDNAKNTVYLQMNSLKPEDTAVFYCAATLLSRFYLSNRRSAYNYWGQGTLVTVSS”: the “polyreactivity (PSR sort gate)” value is reported as “high polyreactivity”.

For “QVQLVESGGGLVQAGGSLRLSCAASGITFSVYAMGWYRQAPGKERELVAAINYDSGSTYYADSVKGRFTISRDNAKNTVYLQMNSLKPEDTAVYYCATDGVNPFYAFDYWGQGTQVTVSS”, the “polyreactivity (PSR sort gate)” value was “low polyreactivity”.

For the sequence “QVHLVESGGGLVQAGGSLRLSCAASGRILPFYAMGWYRQAPGKERELVATISWTSDSTYYADSVKGRFTISRDNAKNTVYLQMNSLKPEDTAVYYCAREYTYTYASTVIYDHWGQGTQVTVSS”, the “polyreactivity (PSR sort gate)” value is recorded as “low polyreactivity”.

With “QVQHVESGGGLVQAGGSLRLSCAASGSIFIPYAMGWSRQPPGKERELVAAISWSGSSTYYADSVKGRFTISRDNAKNTVYLQMISLKPEDTAVYYCAAYNAYRRGYDYWGQGTQVTVSS”, the “polyreactivity (PSR sort gate)” value is reported as “high polyreactivity”.

Turning to “QDQLVESGGGLVQAGGSLRLICAASGRILTSYAMGWYRQAPGKERELVAAISGSSASTYYADSVKGRFTISRDNAKNTVYLQMNSLKPEDTAVYYCAAYKYDYRVDTGYDYWGQGTQVTVSS”, the “polyreactivity (PSR sort gate)” value is reported as “low polyreactivity”.

As to “QVQLVESGGGLVQAGGSLRLSCAASGSTLAVYAMLWYRQAPGKERELVAAISYSGGGTYYADSVKGRFTISRDNAKNTVYLQMNSLKPEDTAVYYCATDLYYEYFTWDYYWGQGTQVTVSS”, the “polyreactivity (PSR sort gate)” value was “low polyreactivity”.

Take “QVQLVESGGGLDQAGGSLRLSCAASGITFVWNAMGWYRQAPGKERELVATISRGGVRTYYADSVKGRFTISRDNAKNTVYLQMNSLKPEDTAVYYCNKTTLLTVEYDYWGQGTQLTVSS”: the “polyreactivity (PSR sort gate)” value is listed as “low polyreactivity”.

With “QVQLVESAGGLVQAGVSLRLSCAASGSIYPGSAMRWYRQAPGNERELVAAITFGGGITYYADSVKGRFTISRDNAKYTVYLQMNSLKPEDSAVYYCAAKSPRILLDYWGQGTQVTVSS”, the “polyreactivity (PSR sort gate)” value was “low polyreactivity”.

On to “QVQLVESAAGLVQAGGSLRLSCAASGRIFGSYVMGWYRQAPGKERELVAAISASGGSTYYADSVKGRFTISRDNAKNTVYLQMNSLKPEDTAVYYCAATSIYTWWDLLDYWGQGTQVTVSS”, for which the “polyreactivity (PSR sort gate)” value is given as “high polyreactivity”.

On to “QVQHVESGGGVVQAGGSLRFSCAASGRIFYRYAMGWYRPAPGKERELVAAITIGGRTNYADSVKGRFTISRDNAKTTVYLQMNSLKPEDTAVYYCAVVLYTRYPPRVRYYYWGQGTQVTVSS”, for which the “polyreactivity (PSR sort gate)” value was “high polyreactivity”.

Regarding “QVQLVESGGGLVQAGGSLRLSCAASGSTFWSNAMGWYRQAPGKERELVAAISISDGNTYYADSVKGRFTISRDNAKNTVYLQMNSLKPEDTAVYYCATVGSEDGDPGFDYWGQGTQVTVSS”, the “polyreactivity (PSR sort gate)” value is recorded as “low polyreactivity”.

In the case of “QVQLVESGGGLVQAGGSLRLSCAASGSIFYQNAMGWYIQAPGKERELVAAITSDGSTYYADSVKGRFTISRDNAKNTVYLQMNSLKPEDTAVYYCAAEYYGHRYDYWGQGTQVTVSS”, the “polyreactivity (PSR sort gate)” value is given as “low polyreactivity”.

With “QVQLVESGGGLVQAGGSLRLSCAASGRIIYYAMGWYRQAPGKERELVAAITRNGGTYADSVKGRFTISRDNAKNTVYLQMHRLKPEDTAVYYCNADPDFGDDYWGQGTQVTVSS”, the “polyreactivity (PSR sort gate)” value was “low polyreactivity”.

With “QVQLVESGGGLVQAGGSLRLSCAASGITSSAYAMGWYRQAPGKERELVARITWSGGRTHYADSVKGRFTISRDNAKNTVYLQMNSLKPEDTAVYYGYWLGYKEDDYWGQGTQVTVSS”, the “polyreactivity (PSR sort gate)” value is reported as “high polyreactivity”.

On to “QVHLVESGGGLVQAGGSHRLRCAASGRIFSGYAKGRYRQAPGKERELVAAITQSGGSTSYADSVKGRFTISRDNAKNTVYLQMIRLKPEDTAVYYCNVDDSTWIGAYRRYDYWGQGTQVTVSS”, for which the “polyreactivity (PSR sort gate)” value is given as “low polyreactivity”.

In the case of “QVHLVESGGGLVQAGGILRLSCAAFGFTFKSYAMVWYIQAPGKERELVAGITSSGGGTYYADSVKGRFTISRDNAKNTVYLQMNSLKPEDTAVYYCNTYSYLFSRYGYWGQGTQVTVSS”, the “polyreactivity (PSR sort gate)” value is recorded as “high polyreactivity”.
